In experiment [1] the target is T1, PD1 (on CHO-PD1 cells and on T cells) (human, UniProt Q15116 25-288).
T1 construct: whole, on cells; also called PD1抗原分子
Nature of the experiment: flow cytometry on CHO-PD1 cells. (A flow cytometer gives signals particle by particle.)

Experiment [2] has as its target T2, CD96 (on 293T-CD96 cells and on T cells) (human) (UniProt P40200).
T2 sequence (looked up): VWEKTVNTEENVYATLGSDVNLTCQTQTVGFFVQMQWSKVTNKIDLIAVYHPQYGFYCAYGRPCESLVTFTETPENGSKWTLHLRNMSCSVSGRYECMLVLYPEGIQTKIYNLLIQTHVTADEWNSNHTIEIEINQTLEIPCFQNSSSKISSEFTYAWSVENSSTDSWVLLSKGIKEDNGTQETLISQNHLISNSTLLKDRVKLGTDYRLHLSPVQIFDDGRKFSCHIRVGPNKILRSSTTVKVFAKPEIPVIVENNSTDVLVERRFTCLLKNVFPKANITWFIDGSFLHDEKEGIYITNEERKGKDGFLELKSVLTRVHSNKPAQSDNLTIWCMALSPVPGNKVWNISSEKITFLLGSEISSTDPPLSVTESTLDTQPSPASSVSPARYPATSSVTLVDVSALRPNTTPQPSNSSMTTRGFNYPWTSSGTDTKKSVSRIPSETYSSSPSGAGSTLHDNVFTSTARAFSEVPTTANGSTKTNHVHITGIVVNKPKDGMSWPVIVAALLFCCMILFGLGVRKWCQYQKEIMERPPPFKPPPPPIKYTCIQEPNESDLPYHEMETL
Nature of the experiment: flow cytometry on 293T-CD96 cells, 1.25 μg antibody, FITC anti-IgG detection.

Experiment [3] concerns the target T2, CD96 (on 293T-CD96 cells and on T cells) (human). Put plainly: flow cytometry on T cells at day 11 (CD96 expression 96.05%), FITC anti-IgG detection.
Experiment [4] deals with T3, CD96-His (human, UniProt P40200-2 22-503, limits assumed).
T3 construct: not shown: His tag
T3 sequence (looked up): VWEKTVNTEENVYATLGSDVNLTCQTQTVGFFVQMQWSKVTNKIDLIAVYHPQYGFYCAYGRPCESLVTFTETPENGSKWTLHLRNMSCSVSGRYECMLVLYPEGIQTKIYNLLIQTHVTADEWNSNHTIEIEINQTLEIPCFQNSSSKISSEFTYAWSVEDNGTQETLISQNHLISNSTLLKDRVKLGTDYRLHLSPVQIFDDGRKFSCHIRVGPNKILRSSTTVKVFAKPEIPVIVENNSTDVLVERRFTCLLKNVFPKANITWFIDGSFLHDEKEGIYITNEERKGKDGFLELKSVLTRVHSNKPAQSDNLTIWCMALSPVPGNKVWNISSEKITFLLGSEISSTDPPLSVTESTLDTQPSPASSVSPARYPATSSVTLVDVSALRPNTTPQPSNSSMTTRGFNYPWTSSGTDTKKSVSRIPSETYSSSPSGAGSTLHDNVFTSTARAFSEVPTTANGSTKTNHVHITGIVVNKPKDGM
Put plainly: BLI (Fortebio), CD96-His antigen immobilised. (In general: Biolayer interferometry detects binding as a change in optical thickness at a sensor tip.)

T1 sequence (Q15116 25-288): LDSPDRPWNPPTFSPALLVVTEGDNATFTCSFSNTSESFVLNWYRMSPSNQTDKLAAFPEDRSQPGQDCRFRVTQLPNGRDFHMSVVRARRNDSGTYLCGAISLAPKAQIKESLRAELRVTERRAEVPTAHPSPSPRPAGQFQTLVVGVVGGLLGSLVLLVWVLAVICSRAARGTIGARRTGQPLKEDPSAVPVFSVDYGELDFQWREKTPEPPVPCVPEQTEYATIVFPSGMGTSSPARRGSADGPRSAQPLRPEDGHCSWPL

B1: CD96 ScFv-Holes-PD1 ScFv-Knobes (bispecific antibody, human IgG4 S228P)
chain 1: DVVMTQTPLTLSVTIGQPASISCKSSQSLLDSDGKTYLNWLLQRPGESPKLLIYLVSKLDSGVPDRFTGSGSGTDFTLKISRVEAEDLGVYYCLQATHFPWTFGGGTKLEIKGSTSGSGKPGSGEGSTKGQVTLKESGPGILQPSQTLSLTCSFSGFSLDTFGMGVGWIRQSSGKGLEWLAHIWWDDDKFYNPALKSRLTVSKDTSKNQVFLKIANVDTADTATYYCAHYYGSLSFDVWGTGTTVTVSSESKYGPPCPPCPAPEFLGGPSVFLFPPKPKDTLMISRTPEVTCVVVDVSQEDPEVQFNWYVDGVEVHNAKTKPREEQFNSTYRVVSVLTVLHQDWLNGKEYKCKVSNKGLPSSIEKTISKAKGQPREPQVCTLPPSQEEMTKNQVSLSCAVKGFYPSDIAVEWESNGQPENNYKTTPPVLDSDGSFFLVSKLTVDKSRWQEGNVFSCSVMHEALHNHYTQKSLSLSLGK
chain 2: EIVLTQSPATLSLSPGERATLSCRASQSVSSYLAWYQQKPGQAPRLLIYDASNRATGIPARFSGSGSGTDFTLTISSLEPEDFAVYYCQQSSNWPRTFGQGTKVEIKGSTSGSGKPGSGEGSTKGQVQLVESGGGVVQPGRSLRLDCKASGITFSNSGMHWVRQAPGKGLEWVAVIWYDGSKRYYADSVKGRFTISRDNSKNTLFLQMNSLRAEDTAVYYCATNDDYWGQGTLVTVSSESKYGPPCPPCPAPEFLGGPSVFLFPPKPKDTLMISRTPEVTCVVVDVSQEDPEVQFNWYVDGVEVHNAKTKPREEQFNSTYRVVSVLTVLHQDWLNGKEYKCKVSNKGLPSSIEKTISKAKGQPREPQVYTLPPCQEEMTKNQVSLWCLVKGFYPSDIAVEWESNGQPENNYKTTPPVLDSDGSFFLYSKLTVDKSRWQEGNVFSCSVMHEALHNHYTQKSLSLSLGK
notes: Knob-into-hole heterodimer of two scFv-Fc chains
For B1, the binding result in experiment [1] was “binds”.

B2: CD96 ScFv-Fc (scFv)
chain: DVVMTQTPLTLSVTIGQPASISCKSSQSLLDSDGKTYLNWLLQRPGESPKLLIYLVSKLDSGVPDRFTGSGSGTDFTLKISRVEAEDLGVYYCLQATHFPWTFGGGTKLEIKGSTSGSGKPGSGEGSTKGQVTLKESGPGILQPSQTLSLTCSFSGFSLDTFGMGVGWIRQSSGKGLEWLAHIWWDDDKFYNPALKSRLTVSKDTSKNQVFLKIANVDTADTATYYCAHYYGSLSFDVWGTGTTVTVSS
notes: Monospecific scFv-Fc control ('单抗'); also called CD96单抗; CD96抗体; not shown: Fc of the monospecific ScFv-Fc
Consider B2, for which the FITC-IgG的表达率 (percent positive cells) in experiment [2] was 86.7%. Besides, the FITC-IgG的表达 (percent positive cells) in experiment [3] is 96.1%. Further, the dissociation constant (Kd) in experiment [4] was found to be 30.8 nM.

For orientation: Kd means the free concentration of one partner at which half of the binding sites on the other are occupied at equilibrium, for simple one-to-one binding.

Source of the values: patent publication CN112961245A (CHONGQING PREC BIOTECH CO LTD, dated 2021).
